PMC9133651, “Elucidation of physico-chemical principles of high-density lipoprotein–small RNA binding interactions”

Target: apolipoprotein A-I (lipid-free) (Homo sapiens, UniProt P02647 25-267)
Assay: MST; Kd only in figure; MST: 100 nM AF647 oligo (90 C 2 min, cooled) mixed 1:1 with ligand in PBS, RT, 5 min; EMSA: 1 uM AF546 oligo, UV 254 nm 15 min on ice, 4-16% NativePAGE, 0.5x TBE
Conditions: protein: native; label: 3' Alexa Fluor 647

Sequence of apolipoprotein A-I (lipid-free) (P02647 25-267): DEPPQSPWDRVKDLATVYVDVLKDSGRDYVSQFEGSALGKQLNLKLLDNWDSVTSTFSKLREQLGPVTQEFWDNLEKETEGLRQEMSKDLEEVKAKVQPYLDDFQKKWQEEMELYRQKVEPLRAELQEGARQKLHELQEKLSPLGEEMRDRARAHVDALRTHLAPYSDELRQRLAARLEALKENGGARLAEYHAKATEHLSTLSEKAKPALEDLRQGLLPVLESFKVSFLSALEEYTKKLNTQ

UUUGUUCGUUCGGCUCGCGUGA (ssRNA) [miR-375-3p]
binding result: binds

UGUCAGUUUGUCAAAUACCCCA (ssRNA) [miR-223-3p]
binding result: binds

CCUGGUGGUCUAGUGGUUAGGAUUCGGCGC (ssRNA) [tDR-GluCTC-30]
binding result: binds
